Experiment: Single-channel electrical recordings of protein pores in planar lipid bilayers
Type: biochemical
Details: +40 mV
[1] = 1 M KCl, 10 mM potassium phosphate, pH 7.4

B1: WT-FhuA: wild-type E. coli ferric hydroxamate uptake component A, 714-residue β-barrel outer membrane protein (protein, UniProt P06971 34-747, looked up)
Ferrichrome outer membrane …: AVEPKEDTITVTAAPAPQESAWGPAATIAARQSATGTKTDTPIQKVPQSISVVTAEEMALHQPKSVKEALSYTPGVSVGTRGASNTYDHLIIRGFAAEGQSQNNYLNGLKLQGNFYNDAVIDPYMLERAEIMRGPVSVLYGKSSPGGLLNMVSKRPTTEPLKEVQFKAGTDSLFQTGFDFSDSLDDDGVYSYRLTGLARSANAQQKGSEEQRYAIAPAFTWRPDDKTNFTFLSYFQNEPETGYYGWLPKEGTVEPLPNGKRLPTDFNEGAKNNTYSRNEKMVGYSFDHEFNDTFTVRQNLRFAENKTSQNSVYGYGVCSDPANAYSKQCAALAPADKGHYLARKYVVDDEKLQNFSVDTQLQSKFATGDIDHTLLTGVDFMRMRNDINAWFGYDDSVPLLNLYNPVNTDFDFNAKDPANSGPYRILNKQKQTGVYVQDQAQWDKVLVTLGGRYDWADQESLNRVAGTTDKRDDKQFTWRGGVNYLFDNGVTPYFSYSESFEPSSQVGKDGNIFAPSKGKQYEVGVKYVPEDRPIVVTGAVYNLTKTNNLMADPEGSFFSVEGGEIRARGVEIEAKAALSASVNVVGSYTYTDAEYTTDTTYKGNTPAQVPKHMASLWADYTFFDGPLSGLTLGTGGRYTGSSYGDPANSFKVGSYTVVDALVRYDLARVGMAGSNVALHVNNLFDREYVASCFNTYGCFWGAERQVVATATFRF
In the case of B1, the “all-points histogram current amplitude peak” value is reported as roughly 12.5 pA, the Conductance [1] is reported as 0.3 ± 0.2 nS and the single-channel conductance [1] is reported as 0.3±0.2 nS.

Source: patent US8916684B2, “Bioengineered protein pores” (Syracuse University, priority 2010, dated 2014)
